Results published in US20150086562A1.

Target: recombinant CD22 extracellular domain
Experiment: The sheet does not state the method. The column 'KD (nM)' stands beside the confocal data. The values largely repeat FIGURE 18 (SPR on recombinant CD22 extracellular domain), so the target form is taken from there.

Chain of recombinant CD22 extracellular domain (chain, as listed by the source limits assumed): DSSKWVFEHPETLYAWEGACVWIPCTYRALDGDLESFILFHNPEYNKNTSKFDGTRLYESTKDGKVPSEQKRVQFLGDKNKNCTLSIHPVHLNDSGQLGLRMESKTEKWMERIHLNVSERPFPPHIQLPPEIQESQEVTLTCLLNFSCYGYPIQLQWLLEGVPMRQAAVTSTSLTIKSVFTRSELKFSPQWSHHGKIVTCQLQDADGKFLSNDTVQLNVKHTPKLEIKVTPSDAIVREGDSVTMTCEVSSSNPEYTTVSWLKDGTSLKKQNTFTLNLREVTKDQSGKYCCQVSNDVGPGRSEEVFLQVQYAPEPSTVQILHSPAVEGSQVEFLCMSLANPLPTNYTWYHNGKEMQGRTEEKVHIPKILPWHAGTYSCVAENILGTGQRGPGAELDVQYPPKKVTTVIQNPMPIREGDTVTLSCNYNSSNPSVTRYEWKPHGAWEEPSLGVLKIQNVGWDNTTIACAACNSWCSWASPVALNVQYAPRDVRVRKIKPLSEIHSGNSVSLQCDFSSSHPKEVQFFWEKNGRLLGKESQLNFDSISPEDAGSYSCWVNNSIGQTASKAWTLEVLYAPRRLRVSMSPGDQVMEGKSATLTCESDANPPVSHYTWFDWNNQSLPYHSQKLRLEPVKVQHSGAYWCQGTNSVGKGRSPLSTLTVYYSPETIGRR

Kd: 20 nM
Substance: LL2 (mouse Mab) (antibody)
